Where a chain is given by its changes, count along the chain named. One block for each binder: values may come before it.
Columns and labels:
FcRn-p3 fusion protein [1] = biological target: T1, FcRn-p3 fusion protein (human, UniProt P55899 24-297; P61769 21-119); assay: phage ELISA pH6
T1 construct: baculovirus expressed; coated on ELISA wells; not shown: amino terminal part of bacteriophage p3 protein and CVDE protein

FcRn-p3 fusion protein [2] = biological target: T1, FcRn-p3 fusion protein; assay: phage ELISA pH6 (est.)

- Ratio/Fc-H (FcRn-p3 fusion protein [1]): 3.4 fold
- Ratio/FWT (FcRn-p3 fusion protein [2]): 10.8 fold
B1: C4A_41 (other)
chain: CPPCPAPELLGGPSVFLFPPKPKDTLMISRTPEVTCVVVDVSHEDPEVKFNWYVDGVEVHNAKTKPREEQYNSTYRVVSVLTVLHQDWLDGKEYKCKVSNKALPVPIEKTISKAKGQPREPQVYTLPPSRDELTKNEVSLTCLVKGFYPSDIAVEWESNGQPENNYKTTPPVLDSDGSFFLYSKLTVDKSRWQQGNVFSCSVMHEALHYHYTQKSLSLSPGK
notes: EU numbering

- Ratio/Fc-H (FcRn-p3 fusion protein [1]): 2.2 fold
- Ratio/FWT (FcRn-p3 fusion protein [2]): 6.9 fold
B2: C7A_02 (other)
chain: B1 chain with V39E, D90N, V105A, E137Q, K145R, A153V
notes: EU numbering

- Ratio/Fc-H (FcRn-p3 fusion protein [1]): 1.7 fold
- Ratio/FWT (FcRn-p3 fusion protein [2]): 5.6 fold
B3: M3A_08 (other)
chain: B1 chain with V39E, T82P, D90N, V105A, E137Q, A153T, V172M, Y209N
notes: EU numbering

- Ratio/Fc-H (FcRn-p3 fusion protein [1]): 1.9 fold
- Ratio/FWT (FcRn-p3 fusion protein [2]): 6.2 fold
B4: M3A_18 (other)
chain: B1 chain with T82P, D90N, V105A, E137Q, A153V, N196T, Y209N
notes: EU numbering

- Ratio/Fc-H (FcRn-p3 fusion protein [1]): 2.9 fold
- Ratio/FWT (FcRn-p3 fusion protein [2]): 9.3 fold
B5: C5A_19 (other)
chain: B1 chain with V39A, V80A, E137Q
notes: EU numbering

- Ratio/Fc-H (FcRn-p3 fusion protein [1]): 1.8 fold
- Ratio/FWT (FcRn-p3 fusion protein [2]): 5.7 fold
B6: C7A_22 (other)
chain: B1 chain with V105A, K109E, E137Q, A153V
notes: EU numbering

- Ratio/Fc-H (FcRn-p3 fusion protein [1]): 1.7 fold
- Ratio/FWT (FcRn-p3 fusion protein [2]): 5.5 fold
B7: C8A_61 (other)
chain: B1 chain with P5T, V39E, D90N, V105A, E137Q, P171L
notes: EU numbering

- Ratio/Fc-H (FcRn-p3 fusion protein [1]): 2.7 fold
- Ratio/FWT (FcRn-p3 fusion protein [2]): 8.8 fold
B8: C8A_41 (other)
chain: B1 chain with V105A, E137Q, E157V, H208P
notes: EU numbering

- Ratio/Fc-H (FcRn-p3 fusion protein [1]): 1.7 fold
- Ratio/FWT (FcRn-p3 fusion protein [2]): 5.3 fold
B9: C7A_49 (other)
chain: B1 chain with E137Q, T169A
notes: EU numbering

- Ratio/Fc-H (FcRn-p3 fusion protein [1]): 2.7 fold
- Ratio/FWT (FcRn-p3 fusion protein [2]): 8.7 fold
B10: C5A_44 (other)
chain: B1 chain with V105A, E137Q, N164K
notes: EU numbering

- Ratio/Fc-H (FcRn-p3 fusion protein [1]): 1.9 fold
- Ratio/FWT (FcRn-p3 fusion protein [2]): 6.2 fold
B11: C6A_05 (other)
chain: B1 chain with T82A, E137Q
notes: EU numbering

- Ratio/Fc-H (FcRn-p3 fusion protein [1]): 1.3 fold
- Ratio/FWT (FcRn-p3 fusion protein [2]): 4.3 fold
B12: C5A_41 (other)
chain: B1 chain with A102T, E137R
notes: EU numbering

- Ratio/Fc-H (FcRn-p3 fusion protein [1]): 3.8 fold
- Ratio/FWT (FcRn-p3 fusion protein [2]): 12.1 fold
B13: C5A_12 (other)
chain: B1 chain with V105A, N164K
notes: EU numbering

- Ratio/Fc-H (FcRn-p3 fusion protein [1]): 2.9 fold
- Ratio/FWT (FcRn-p3 fusion protein [2]): 9.4 fold
B14: C6A_04 (other)
chain: B1 chain with D90N, V105A, Q117R, E137Q, E157V
notes: EU numbering

- Ratio/Fc-H (FcRn-p3 fusion protein [1]): 2 fold
- Ratio/FWT (FcRn-p3 fusion protein [2]): 6.3 fold
B15: C5A_63 (other)
chain: B1 chain with S73N, E137Q
notes: EU numbering

- Ratio/Fc-H (FcRn-p3 fusion protein [1]): 3.4 fold
- Ratio/FWT (FcRn-p3 fusion protein [2]): 10.9 fold
B16: C5A_15 (other)
chain: B1 chain with V78A, E137Q, E157V
notes: EU numbering

- Ratio/Fc-H (FcRn-p3 fusion protein [1]): 3.4 fold
- Ratio/FWT (FcRn-p3 fusion protein [2]): 10.9 fold
B17: C6A_36 (other)
chain: B1 chain with T82P, V105A, E137Q, E157G, Q194H
notes: EU numbering

- Ratio/Fc-H (FcRn-p3 fusion protein [1]): 2.8 fold
- Ratio/FWT (FcRn-p3 fusion protein [2]): 9.1 fold
B18: C5A_58 (other)
chain: B1 chain with V39E, D90N, V105A, E137Q, A153V, P171L, Y209S
notes: EU numbering

- Ratio/Fc-H (FcRn-p3 fusion protein [1]): 2.7 fold
- Ratio/FWT (FcRn-p3 fusion protein [2]): 8.7 fold
B19: C5A_03 (other)
chain: B1 chain with V39A, V105A, E137Q
notes: EU numbering

- Ratio/Fc-H (FcRn-p3 fusion protein [1]): 2.3 fold
- Ratio/FWT (FcRn-p3 fusion protein [2]): 7.2 fold
B20: C4A_45 (other)
chain: B1 chain with K21R, H60Y, E137Q
notes: EU numbering

- Ratio/Fc-H (FcRn-p3 fusion protein [1]): 2.6 fold
- Ratio/FWT (FcRn-p3 fusion protein [2]): 8.4 fold
B21: M3A_21 (other)
chain: B1 chain with F16L, V39E, T82P, D90N, V105A, E137Q, A153V, N196T, Y209N
notes: EU numbering

- Ratio/Fc-H (FcRn-p3 fusion protein [1]): 1.8 fold
- Ratio/FWT (FcRn-p3 fusion protein [2]): 5.7 fold
B22: C6A_35 (other)
chain: B1 chain with T25A, E137Q
notes: EU numbering

- Ratio/Fc-H (FcRn-p3 fusion protein [1]): 1.1 fold
- Ratio/FWT (FcRn-p3 fusion protein [2]): 3.4 fold
B23: M3A_12 (other)
chain: B1 chain with V105A, E137R, N196D, Y209S
notes: EU numbering

- Ratio/Fc-H (FcRn-p3 fusion protein [1]): 1.8 fold
- Ratio/FWT (FcRn-p3 fusion protein [2]): 5.6 fold
B24: M3A_26 (other)
chain: B1 chain with V39E, T82P, D90N, V105A, K115E, Q117R, E137Q, A153V, Y209N
notes: EU numbering

- Ratio/Fc-H (FcRn-p3 fusion protein [1]): 2.6 fold
- Ratio/FWT (FcRn-p3 fusion protein [2]): 8.2 fold
B25: C7A_27 (other)
chain: B1 chain with V39E, T82N, D90N, V105A, E137Q, A153V, V172M
notes: EU numbering

- Ratio/Fc-H (FcRn-p3 fusion protein [1]): 3.6 fold
- Ratio/FWT (FcRn-p3 fusion protein [2]): 11.5 fold
B26: C7A_43 (other)
chain: B1 chain with V39E, T82P, D90N, V105A, E137Q, A153V, P171S, Y209S
notes: EU numbering

- Ratio/Fc-H (FcRn-p3 fusion protein [1]): 2.2 fold
- Ratio/FWT (FcRn-p3 fusion protein [2]): 6.9 fold
B27: C7A_37 (other)
chain: B1 chain with F16L, V105A, E137Q, N164K
notes: EU numbering

- Ratio/Fc-H (FcRn-p3 fusion protein [1]): 3.4 fold
- Ratio/FWT (FcRn-p3 fusion protein [2]): 10.9 fold
B28: C7A_68 (other)
chain: B1 chain with V39E, V105A, E137Q, A153V, N165S, G195R
notes: EU numbering

- Ratio/Fc-H (FcRn-p3 fusion protein [1]): 2.4 fold
- Ratio/FWT (FcRn-p3 fusion protein [2]): 7.6 fold
B29: C8A_14 (other)
chain: B1 chain with V80A, D90N, V105A, E137Q, Q161R
notes: EU numbering

- Ratio/Fc-H (FcRn-p3 fusion protein [1]): 2.3 fold
- Ratio/FWT (FcRn-p3 fusion protein [2]): 7.4 fold
B30: C7A_13 (other)
chain: B1 chain with F16L, V39E, D90N, V105A, E137Q, A153V, N196T
notes: EU numbering

- Ratio/Fc-H (FcRn-p3 fusion protein [1]): 2.6 fold
- Ratio/FWT (FcRn-p3 fusion protein [2]): 8.4 fold
B31: C5A_20 (other)
chain: B1 chain with V105A, E137Q, S190D
notes: EU numbering

- Ratio/Fc-H (FcRn-p3 fusion protein [1]): 1.8 fold
- Ratio/FWT (FcRn-p3 fusion protein [2]): 5.7 fold
B32: M3A_06 (other)
chain: B1 chain with F16L, V39E, D90N, V105A, E137Q, A153T, V172M, Y209N
notes: EU numbering

- Ratio/Fc-H (FcRn-p3 fusion protein [1]): 2.3 fold
- Ratio/FWT (FcRn-p3 fusion protein [2]): 7.4 fold
B33: C7A_89 (other)
chain: B1 chain with T82P, D90N, A102T, V105A, E137Q, N164T, N196T
notes: EU numbering

- Ratio/Fc-H (FcRn-p3 fusion protein [1]): 2.3 fold
- Ratio/FWT (FcRn-p3 fusion protein [2]): 7.3 fold
B34: C5A_50 (other)
chain: B1 chain with D45N, V105A, E137Q
notes: EU numbering

- Ratio/Fc-H (FcRn-p3 fusion protein [1]): 2 fold
- Ratio/FWT (FcRn-p3 fusion protein [2]): 6.4 fold
B35: C8A_08 (other)
chain: B1 chain with V39A, E137Q
notes: EU numbering

- Ratio/Fc-H (FcRn-p3 fusion protein [1]): 2.8 fold
- Ratio/FWT (FcRn-p3 fusion protein [2]): 8.9 fold
B36: C5A_75 (other)
chain: B1 chain with T82N, V105A, E137Q
notes: EU numbering

- Ratio/Fc-H (FcRn-p3 fusion protein [1]): 2.8 fold
- Ratio/FWT (FcRn-p3 fusion protein [2]): 8.9 fold
B37: C7A_18 (other)
chain: B1 chain with V39E, D90N, V105A, E137Q, A153V, K189R, N196T
notes: EU numbering
